# Experimental data from paper PMC8372783.
# B1: 15mer Fl (FAM) (structured_DNA)
# DNA: GGTTGGTGTGGTTGG
# B2: 15mer, Texas Red (structured_DNA)
# DNA: GGTTGGTGTGGTTGG
# Tests used:
# thrombin [1] = molecular target: T1, thrombin (human, UniProt P00734;P00734 328-363;364-622); assay: affinity probe capillary electrophoresis
# thrombin [2] = molecular target: T1, thrombin; assay: affinity probe capillary electrophoresis; remark: listed apart in the source
# thrombin [3] = molecular target: T1, thrombin; assay: fluorescence anisotropy
# thrombin [4] = molecular target: T1, thrombin; assay: fluorescence anisotropy; remark: listed apart in the source
# thrombin [5] = molecular target: T1, thrombin; assay: fluorescence anisotropy; remark: listed apart in the source
# thrombin [6] = molecular target: T1, thrombin; assay: fluorescence anisotropy; remark: listed apart in the source
# thrombin [7] = molecular target: T1, thrombin; assay: fluorescence anisotropy; remark: listed apart in the source
# thrombin [8] = molecular target: T1, thrombin; assay: fluorescence anisotropy; remark: listed apart in the source
# thrombin [9] = molecular target: T1, thrombin; assay: affinity probe capillary electrophoresis; remark: listed apart in the source
Binder,apparent K (half saturation) (thrombin [1]) [nM],apparent K (half saturation) (thrombin [2]) [nM],apparent K (half saturation) (thrombin [3]) [nM],apparent K (half saturation) (thrombin [4]) [nM],apparent K (half saturation) (thrombin [5]) [nM],apparent K (half saturation) (thrombin [6]) [nM],apparent K (half saturation) (thrombin [7]) [nM],apparent K (half saturation) (thrombin [8]) [nM],Kd (thrombin [9]) [nM]
B1,60.9 ± 5.3,49.2 ± 1.2,,,,,,,
B2,,,25 ± 1.5,29.7 ± 1.1,51.8 ± 2.9,30.4 ± 2.6,27.3 ± 1.6,23.7 ± 1.1,4.5 ± 1.4
